The subject of this data set is Escherichia coli TOP10. Kind of data set: shrunken log2 fold change of peptide-encoding DNA abundance (4.5 h post-induction vs induction); higher = less antimicrobial activity (less host growth inhibition). As to conditions: time post-induction: 4.5 h; library: site-saturation at positions 5, 18, 19, 20.
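Also: peptides expressed intracellularly from a pBAD plasmid library in pooled LB shake-flask culture, induced with 0.3% L-arabinose, DNA abundance read by NGS, three biological replicates, DESeq2 with apeglm shrinkage.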

RRIRKRPPRLPRPRPRPISLPRP: the “shrunken log2 fold change” value is 0.00252.

For RRIRRRPPRLPRPRPRPQYRPRP, the “shrunken log2 fold change” value is -0.0575.

As to RRIRFRPPRLPRPRPRPEANPRP, the “shrunken log2 fold change” value is 0.666.

As for RRIRKRPPRLPRPRPRPENGPRP, the “shrunken log2 fold change” value turned out to be 0.0267.

For RRIRQRPPRLPRPRPRPDTPPRP, the “shrunken log2 fold change” value was -0.039.

As for RRIRWRPPRLPRPRPRPEQMPRP, the “shrunken log2 fold change” value was 0.222.

For RRIRTRPPRLPRPRPRPNADPRP, the “shrunken log2 fold change” value was -0.00181.

Regarding RRIRTRPPRLPRPRPRPYMTPRP, the “shrunken log2 fold change” value is -0.375.

Consider RRIRPRPPRLPRPRPRPKHIPRP, for which the “shrunken log2 fold change” value was -0.301.

Consider RRIRMRPPRLPRPRPRPHYTPRP, for which the “shrunken log2 fold change” value was -0.399.

Consider RRIRHRPPRLPRPRPRPSKWPRP, for which the “shrunken log2 fold change” value was -0.452.

Turning to RRIRMRPPRLPRPRPRPYDDPRP, the “shrunken log2 fold change” value was -0.00329.

As for RRIRERPPRLPRPRPRPKWMPRP, the “shrunken log2 fold change” value was -0.0884.

For the sequence RRIRCRPPRLPRPRPRPPFQPRP, the “shrunken log2 fold change” value worked out at 0.149.

As to RRIRARPPRLPRPRPRPCFEPRP, the “shrunken log2 fold change” value was found to be 0.438.

Turning to RRIRYRPPRLPRPRPRPVRVPRP, the “shrunken log2 fold change” value was 0.0746.

RRIRGRPPRLPRPRPRPSYFPRP: the “shrunken log2 fold change” value was -0.0109.

With RRIRPRPPRLPRPRPRPRVCPRP, the “shrunken log2 fold change” value came to 0.298.

On to RRIRRRPPRLPRPRPRPPLRPRP, for which the “shrunken log2 fold change” value was found to be 0.964.

For the sequence RRIRYRPPRLPRPRPRPRGFPRP, the “shrunken log2 fold change” value was -0.0875.

Take RRIRCRPPRLPRPRPRPPHDPRP: the “shrunken log2 fold change” value was 1.83.

With RRIRMRPPRLPRPRPRPMWLPRP, the “shrunken log2 fold change” value turned out to be 0.208.

RRIRRRPPRLPRPRPRPACWPRP: the “shrunken log2 fold change” value came out at 0.626.

As to RRIRKRPPRLPRPRPRPYQVPRP, the “shrunken log2 fold change” value is 0.0805.

Take RRIRQRPPRLPRPRPRPLPSPRP: the “shrunken log2 fold change” value is -0.0393.

As for RRIRHRPPRLPRPRPRPLWYPRP, the “shrunken log2 fold change” value was -0.923.

As for RRIRSRPPRLPRPRPRPWLYPRP, the “shrunken log2 fold change” value is -0.652.

On to RRIRVRPPRLPRPRPRPPLSPRP, for which the “shrunken log2 fold change” value was 0.106.

RRIRFRPPRLPRPRPRPDNCPRP: the “shrunken log2 fold change” value was -0.0284.

In the case of RRIRIRPPRLPRPRPRPPSCPRP, the “shrunken log2 fold change” value was -0.0736.

For RRIRWRPPRLPRPRPRPGRIPRP, the “shrunken log2 fold change” value was found to be 0.298.

In the case of RRIRLRPPRLPRPRPRPIKFPRP, the “shrunken log2 fold change” value was -0.0676.

Consider RRIRIRPPRLPRPRPRPKDCPRP, for which the “shrunken log2 fold change” value was -0.0124.

For the sequence RRIRERPPRLPRPRPRPRYIPRP, the “shrunken log2 fold change” value is -0.208.

As for RRIRSRPPRLPRPRPRPQMTPRP, the “shrunken log2 fold change” value is -0.0755.

For RRIRLRPPRLPRPRPRPRCKPRP, the “shrunken log2 fold change” value stood at 0.0707.

As to RRIRQRPPRLPRPRPRPQRKPRP, the “shrunken log2 fold change” value is -0.058.

RRIRCRPPRLPRPRPRPMDPPRP: the “shrunken log2 fold change” value was -0.543.

Take RRIRQRPPRLPRPRPRPAWPPRP: the “shrunken log2 fold change” value was 0.303.

Regarding RRIRIRPPRLPRPRPRPPWHPRP, the “shrunken log2 fold change” value is -0.126.

Take RRIRPRPPRLPRPRPRPRSDPRP: the “shrunken log2 fold change” value stood at 0.179.

With RRIRERPPRLPRPRPRPVICPRP, the “shrunken log2 fold change” value is -0.72.

As to RRIRTRPPRLPRPRPRPELCPRP, the “shrunken log2 fold change” value is -0.101.

As for RRIRIRPPRLPRPRPRPWDPPRP, the “shrunken log2 fold change” value was -0.0252.

RRIRPRPPRLPRPRPRPWEDPRP: the “shrunken log2 fold change” value is 0.00408.

Regarding RRIRQRPPRLPRPRPRPKTIPRP, the “shrunken log2 fold change” value is -0.184.

For RRIRIRPPRLPRPRPRPKQSPRP, the “shrunken log2 fold change” value is -0.384.

RRIRTRPPRLPRPRPRPQIKPRP: the “shrunken log2 fold change” value was -0.0374.

Regarding RRIRARPPRLPRPRPRPTPNPRP, the “shrunken log2 fold change” value was found to be 0.602.

With RRIRNRPPRLPRPRPRPDTEPRP, the “shrunken log2 fold change” value was -0.0108.

In the case of RRIRDRPPRLPRPRPRPDQNPRP, the “shrunken log2 fold change” value was -0.0888.

On to RRIRPRPPRLPRPRPRPQGKPRP, for which the “shrunken log2 fold change” value was -0.198.

For RRIRRRPPRLPRPRPRPHFFPRP, the “shrunken log2 fold change” value is 0.149.

With RRIRNRPPRLPRPRPRPQESPRP, the “shrunken log2 fold change” value was -0.342.

Turning to RRIRYRPPRLPRPRPRPDKHPRP, the “shrunken log2 fold change” value was -0.692.

As for RRIRKRPPRLPRPRPRPLGQPRP, the “shrunken log2 fold change” value was 0.991.

With RRIRDRPPRLPRPRPRPFEPPRP, the “shrunken log2 fold change” value is -0.057.

RRIRARPPRLPRPRPRPKDPPRP: the “shrunken log2 fold change” value came to 0.211.

As for RRIRPRPPRLPRPRPRPTMNPRP, the “shrunken log2 fold change” value is -0.0529.

As for RRIRQRPPRLPRPRPRPTQTPRP, the “shrunken log2 fold change” value is -0.00783.

With RRIRHRPPRLPRPRPRPAEYPRP, the “shrunken log2 fold change” value turned out to be 0.034.

As to RRIRARPPRLPRPRPRPVFAPRP, the “shrunken log2 fold change” value was 0.561.

With RRIRNRPPRLPRPRPRPCNSPRP, the “shrunken log2 fold change” value is -0.0484.

Take RRIRRRPPRLPRPRPRPAYNPRP: the “shrunken log2 fold change” value is -0.28.

Take RRIRTRPPRLPRPRPRPWAIPRP: the “shrunken log2 fold change” value is -0.205.

As to RRIRQRPPRLPRPRPRPSGTPRP, the “shrunken log2 fold change” value was 0.0732.

RRIRPRPPRLPRPRPRPPGFPRP: the “shrunken log2 fold change” value worked out at 0.847.

As for RRIRIRPPRLPRPRPRPIARPRP, the “shrunken log2 fold change” value is 0.136.

Regarding RRIRYRPPRLPRPRPRPVCHPRP, the “shrunken log2 fold change” value was -0.583.

With RRIRHRPPRLPRPRPRPAGLPRP, the “shrunken log2 fold change” value was determined as 0.269.

As to RRIRIRPPRLPRPRPRPAEIPRP, the “shrunken log2 fold change” value was -0.484.

As to RRIRNRPPRLPRPRPRPYARPRP, the “shrunken log2 fold change” value was -0.0034.

As to RRIRERPPRLPRPRPRPRRFPRP, the “shrunken log2 fold change” value is 0.158.

Regarding RRIRKRPPRLPRPRPRPGPMPRP, the “shrunken log2 fold change” value came out at 0.595.

Take RRIRMRPPRLPRPRPRPQVDPRP: the “shrunken log2 fold change” value is -0.00893.

Take RRIRYRPPRLPRPRPRPTNNPRP: the “shrunken log2 fold change” value is -1.14.

Turning to RRIRKRPPRLPRPRPRPTCRPRP, the “shrunken log2 fold change” value was 0.289.

Turning to RRIRTRPPRLPRPRPRPSPKPRP, the “shrunken log2 fold change” value turned out to be 2.46.

For RRIRTRPPRLPRPRPRPAFRPRP, the “shrunken log2 fold change” value is -0.125.

Consider RRIRTRPPRLPRPRPRPDQGPRP, for which the “shrunken log2 fold change” value is 0.23.

In the case of RRIRNRPPRLPRPRPRPIMWPRP, the “shrunken log2 fold change” value was found to be 0.137.

Consider RRIRHRPPRLPRPRPRPAYYPRP, for which the “shrunken log2 fold change” value is -0.624.

On to RRIRERPPRLPRPRPRPHYDPRP, for which the “shrunken log2 fold change” value was -0.963.

For RRIRKRPPRLPRPRPRPMGSPRP, the “shrunken log2 fold change” value amounted to 0.0567.

For RRIRTRPPRLPRPRPRPEYAPRP, the “shrunken log2 fold change” value is -0.00931.

As to RRIRWRPPRLPRPRPRPRSHPRP, the “shrunken log2 fold change” value came to 0.273.

Regarding RRIRTRPPRLPRPRPRPRHLPRP, the “shrunken log2 fold change” value turned out to be 0.318.

Regarding RRIRQRPPRLPRPRPRPLCLPRP, the “shrunken log2 fold change” value was -0.253.

On to RRIRTRPPRLPRPRPRPTQFPRP, for which the “shrunken log2 fold change” value came to 0.0832.

In the case of RRIRFRPPRLPRPRPRPMVAPRP, the “shrunken log2 fold change” value came out at 0.297.

Take RRIRTRPPRLPRPRPRPQWFPRP: the “shrunken log2 fold change” value is -0.0925.

In the case of RRIRTRPPRLPRPRPRPAYEPRP, the “shrunken log2 fold change” value is 0.164.

As for RRIRRRPPRLPRPRPRPTCNPRP, the “shrunken log2 fold change” value came out at 0.026.

With RRIRYRPPRLPRPRPRPWDVPRP, the “shrunken log2 fold change” value was -0.114.

On to RRIRERPPRLPRPRPRPSVMPRP, for which the “shrunken log2 fold change” value was -0.175.

Take RRIRDRPPRLPRPRPRPPFYPRP: the “shrunken log2 fold change” value was -0.213.

On to RRIRKRPPRLPRPRPRPGKKPRP, for which the “shrunken log2 fold change” value was -0.0204.

For RRIRPRPPRLPRPRPRPTGPPRP, the “shrunken log2 fold change” value worked out at 0.212.

On to RRIRRRPPRLPRPRPRPMGEPRP, for which the “shrunken log2 fold change” value was found to be 0.0186.

For RRIRQRPPRLPRPRPRPSDEPRP, the “shrunken log2 fold change” value was -0.275.

With RRIRGRPPRLPRPRPRPALLPRP, the “shrunken log2 fold change” value was 1.14.

As to RRIRKRPPRLPRPRPRPLCAPRP, the “shrunken log2 fold change” value was found to be 0.604.

RRIRFRPPRLPRPRPRPDQVPRP: the “shrunken log2 fold change” value worked out at 0.0246.

As to RRIRSRPPRLPRPRPRPTQRPRP, the “shrunken log2 fold change” value amounted to 0.547.

As for RRIRQRPPRLPRPRPRPDPPPRP, the “shrunken log2 fold change” value was 0.316.

RRIRGRPPRLPRPRPRPDEAPRP: the “shrunken log2 fold change” value came to 1.56.

Regarding RRIRKRPPRLPRPRPRPQYNPRP, the “shrunken log2 fold change” value was -0.67.

RRIRDRPPRLPRPRPRPCVMPRP: the “shrunken log2 fold change” value is 0.543.

As to RRIRMRPPRLPRPRPRPVGIPRP, the “shrunken log2 fold change” value is 0.158.

Turning to RRIRFRPPRLPRPRPRPCNFPRP, the “shrunken log2 fold change” value is -0.183.

As for RRIRMRPPRLPRPRPRPLELPRP, the “shrunken log2 fold change” value came to 0.337.

For the sequence RRIRIRPPRLPRPRPRPGPCPRP, the “shrunken log2 fold change” value was 0.255.

For RRIRSRPPRLPRPRPRPIEEPRP, the “shrunken log2 fold change” value came out at 0.0156.

Take RRIRFRPPRLPRPRPRPLQWPRP: the “shrunken log2 fold change” value is -0.0201.

In the case of RRIRYRPPRLPRPRPRPGPVPRP, the “shrunken log2 fold change” value was -0.16.

As for RRIRVRPPRLPRPRPRPAKTPRP, the “shrunken log2 fold change” value was 0.0432.

For RRIRDRPPRLPRPRPRPDMNPRP, the “shrunken log2 fold change” value was 0.287.

Consider RRIRYRPPRLPRPRPRPGRCPRP, for which the “shrunken log2 fold change” value was -0.102.

Take RRIRSRPPRLPRPRPRPQPHPRP: the “shrunken log2 fold change” value was 0.17.

Take RRIRARPPRLPRPRPRPPMVPRP: the “shrunken log2 fold change” value came out at 0.0322.

With RRIRQRPPRLPRPRPRPVTFPRP, the “shrunken log2 fold change” value was -0.0496.

In the case of RRIRDRPPRLPRPRPRPLSFPRP, the “shrunken log2 fold change” value was found to be 0.0422.

As to RRIRARPPRLPRPRPRPFRQPRP, the “shrunken log2 fold change” value was 0.0566.

Take RRIRLRPPRLPRPRPRPVSIPRP: the “shrunken log2 fold change” value is -0.321.

Turning to RRIRFRPPRLPRPRPRPLCVPRP, the “shrunken log2 fold change” value was -0.394.

For the origin of these results see the supplement of paper PMC9112550, “Optimization of the antimicrobial peptide Bac7 by deep mutational scanning” (BMC Biology, 2022).
